± gives the half width of the 95% confidence interval.
Assays:
[1] = folding stability dG unfold from chymotrypsin proteolysis; higher = more stable
Outline: (§1)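 Unfolding free energy was derived, per protease or combined, against a sequence-predicted unfolded-state K50 and a shared folded-state K50, starting from K50 inferred by Bayesian fitting of sequencing counts. Digestion with trypsin and chymotrypsin was carried out on designed mini-proteins under 80 residues without cysteine in a PA-tagged cDNA display construct. Only designs with AlphaFold2 dimer inter-PAE above 15 were kept.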

[2] = folding stability dG unfold (combined trypsin and chymotrypsin); higher = more stable
Outline: as §1

[3] = folding stability dG unfold from trypsin proteolysis; higher = more stable
Outline: as §1

Sequence	folding stability dG unfold [1] [kcal/mol]	folding stability dG unfold [2] [kcal/mol]	folding stability dG unfold [3] [kcal/mol]
SAGGSFEVEVEVERYPEENYYYVKIPIRLPNNGKKIPLDVPVPADDPEPAEKWAKFIAKELAKQGISAGGSA [r2_221_TrROS]	-0.1 ± 0.27	-0.1 ± 0.23	-0.0866 ± 0.14
SAGGSFHDLAKELAKKRGLKKVSINMHPEDNSMNINIQNPEKGRPVQGNIPMEDMTPETVLDQIENILESAG [r5_896_TrROS]	0.297 ± 0.28	-0.0716 ± 0.24	-1.04 ± 0.69
SAGGSFVVIEPTADGVRIVLEDDGALREVPVSPEVAAALAANPDLEGVVRSLLPEGHPIERIAAVPGSAGGS [r16_567_TrMRF]	-0.476 ± 0.17	-0.451 ± 0.2	-0.755 ± 0.24
SAGGSGEVRPLELEFTLPNGAKIKITLHVYPDGTVKVEARIEFGGEYLELRFEFEGEKVPLDFPDFGSAGGS [r16_523_TrMRF]	3.73 ± 0.11	3.73 ± 0.2	3.58 ± 0.13
SAGGSGIEAAILEAVEKGLNPVELTFRLPEDGKLVVLKVEVLDVLDGGAIVKVEMEVYDPENPKKISAGGSA [r2_420_TrMRF]	2.14 ± 0.063	1.83 ± 0.1	1.06 ± 0.089
SAGGSGMIKTETTVTITFPGGETVSFPATVTYDPETGKTEVEVNLPEAALAELKERAPDAEVNVLLSAGGSA [r2_409_JUSTAS]	0.681 ± 0.014	1.29 ± 0.046	1.76 ± 0.032
SAGGSGMIYVIKIKLEPTIKPGKKKEFEFELVLEATPEEIEEVLEKIKKLPKNIKIKEIKIEVFPESAGGSA [r2_75_TrMRF]	3.18 ± 0.073	2.6 ± 0.32	2.08 ± 0.12
SAGGSGMMLEEGVGVDPTTGELHRFTYLREPERPPVEVTVTTTTVVYTTPDGTTVTVTTTTTLEGGSAGGSA [r2_326_JUSTAS]	0.786 ± 0.27	0.789 ± 0.13	0.671 ± 0.047
SAGGSGMTTTFSKEVSSKEEAEKIFKRGFPDLNAKVTKFDPKKGTVEIELTFPDGKKSKATAPIKKSAGGSA [r2_201_JUSTAS]	0.0996 ± 0.5	-0.225 ± 0.37	-0.569 ± 0.58
SAGGSGSTTPETRTEPSPGGTTTEVRTDVHTLPDAETVEITVTRGGRTITLTASPAEAATLRVTPGASAGGS [r8_257_JUSTAS]	-0.614 ± 0.62	-0.436 ± 0.51	-0.555 ± 0.61
SAGGSIELPLEEGSTAEVELELRVPFYRLDANGRPVAPEERTLRIRARFTRLPDGRVLVEVEVEVESAGGSA [r2_154_TrMRF]	5.24 ± 0.1	4.98 ± 0.13	4.46 ± 0.17
SAGGSIPADTVATLTLPDRDLAVRVELVDGTPRYLVTGPDGTPVGTLTPEEFAAFVAALPADARLDLRSAGG [r13_657_JUSTAS]	1.32 ± 0.081	1.15 ± 0.068	0.7 ± 0.032
SAGGSIPLSDIKDIEIHPWRHPNNNYPMYRIRIDNGRDMVIFPGAIFEFDPDDGKIEEVKPMPFGDSAGGSA [r2_374_TrROS]	0.222 ± 0.22	0.238 ± 0.14	0.165 ± 0.22
SAGGSIPPGARVETLEVVTSSSSDGTVTTTTLTRVTSPEDSVSERTRTTTDPVVPPPATPTNPVSLASAGGS [r8_90_JUSTAS]	0.804 ± 0.06	0.507 ± 0.053	-0.0164 ± 0.079
SAGGSISIPVYSPEDVIEAIEFIERYLREKGFPENEEATRIIVERLEDGRYRVIIEYPTRTIIIDDSAGGSA [r2_120_TrMRF]	3.09 ± 0.033	3.01 ± 0.067	2.9 ± 0.049
SAGGSITKTLGTEEKGDKTITYSVTTSPEGKITFTTTTKTPSGSGTSTTTTTTTTPLAGLPLPPLGGSAGGS [r8_458_JUSTAS]	0.831 ± 0.18	0.717 ± 0.19	0.473 ± 0.042
SAGGSKDLEIKITKIKEWDPPNGKQTIRIPIEVYDPENGKPRPPAEELADELQKRFPGMPIKVEPVSAGGSA [r2_27_TrROS]	0.863 ± 0.028	0.441 ± 0.14	-0.416 ± 0.29
SAGGSKEKFLTIEHPDYVIKAYVDYPKEGKLRVRIEIYDKNGKLLKTIEVEAYSPEEVLEFLEKAASAGGSA [r2_82_TrMRF]	3.28 ± 0.13	3.05 ± 0.14	2.48 ± 0.1
SAGGSKELKPGDIITFPKSVSEEEIKEKVKELMEKYGIKGIISIEKKSPNSYIVKIEYPDGNPLAISAGGSA [r2_168_JUSTAS]	1.34 ± 0.081	1.72 ± 0.15	2.1 ± 0.074
SAGGSKERTYRVLIRNPDGELEEIEVSEEELEALLSLPPSATVRIVTEDGEEKTVTINVEKVELKESAGGSA [r2_222_TrROS_Hall]	3.48 ± 0.067	3.07 ± 0.17	1.74 ± 0.11
SAGGSKFEVEKLPDNTYRFKVPNENGETLEITVEKLPDGAILVTHPSNPKPVLFPASTTIEDLLKKSAGGSA [r2_338_TrMRF]	2.22 ± 0.029	1.95 ± 0.032	1.29 ± 0.029

Sequence	folding stability dG unfold [1] [kcal/mol]	folding stability dG unfold [2] [kcal/mol]	folding stability dG unfold [3] [kcal/mol]
SAGGSKGKAPVKVRFLFLEDGKVVAEAEVEFEVEVPIPPVPPVFVPEEARKALENGDIEKALKLLGSAGGSA [r2_196_TrMRF]	1.58 ± 0.035	1.36 ± 0.13	0.827 ± 0.036
SAGGSKKKIEKIEIEIEIKNKDGKTYKIKAEIEKVELKDGKVAKIRLEIYNENGEKIAEFEFEIKISAGGSA [r2_215_TrROS_Hall]	4.03 ± 0.19	3.61 ± 0.23	2.08 ± 0.15
SAGGSKKKKPEKPPVVLIKITVEETGKEITIPLEELRNMSAEELAKRIAEELRERYPGLKVRVEIVSAGGSA [r2_392_TrROS_Hall]	2.28 ± 0.11	2.07 ± 0.17	1.49 ± 0.071
SAGGSKKTIVIPVPPGMSVEQIAAELKAKLEELFPDLKVEVVEVKPDGYVKIKIDGKLILIKFPKPSAGGSA [r2_102_TrROS_Hall]	3.18 ± 0.042	2.77 ± 0.063	1.6 ± 0.049
SAGGSKKVDIKPGKVKKVEVKTLPNGKKLLVLYFPLEDGKEKVVVISSDFKTPEEALEAAYKQLGKSAGGSA [r2_347_TrMRF]	1.21 ± 0.066	1.23 ± 0.21	1.02 ± 0.049
SAGGSKKVKIKITKIEIFPNGTIKVTVKNEDGSEVTITITKNKDGKYKIKIKNKKTKKIFEFEIPLSAGGSA [r2_361_TrROS_Hall]	3.1 ± 0.06	2.8 ± 0.22	2.22 ± 0.089
SAGGSKLPKNSKVLIIDLGAPKGIKPNDKVKIPKELIKKIKEKNPNVKFYKEYNIGNKTYIFIVIDSAGGSA [r2_383_TrMRF]	2.39 ± 0.059	1.96 ± 0.12	1.31 ± 0.067
SAGGSKPKTVEITLEVDGKKVKITVTEKDGKLTVTITFPDGTKLTIELPENMSIEEALKKALEALKSAGGSA [r2_92_TrROS_Hall]	2.4 ± 0.062	2.87 ± 0.096	3.28 ± 0.13
SAGGSKTIEVEIKVPPGMTPEEVAKKLAEELKKAGIEVKVVKVEYDEEKGTVRITLDDGSEVELKVSAGGSA [r2_242_TrROS_Hall]	1.98 ± 0.1	1.58 ± 0.39	1.35 ± 0.093
SAGGSKTVELEIEIDGKLIKIRVEENENGELTVRIEIYDKNGKKVKEIEIKVKSLEEALKALEKLLSAGGSA [r2_82_TrROS_Hall]	3.22 ± 0.12	3.22 ± 0.12	3.21 ± 0.12
SAGGSKVEIWIRFGDYWIRITVEPKPNGRKKVSVEVYNPNGEPMWSITFEIDPDGKIKDIDITPMPSAGGSA [r2_260_TrROS]	5.03 ± 0.14	5.01 ± 0.13	4.53 ± 0.23
SAGGSKWIPVSIWFPKGMTPEKVEEIARELVEAGYRIENIEVEREPDPNGREWYRVDITFRPPGDLSAGGSA [r2_442_TrROS]	3.01 ± 0.089	2.83 ± 0.18	2.71 ± 0.085
SAGGSKWRMYEITLELGDKPVKITVYYMDGNYSVAIKFPPGRKVDIPFDGPMSPEDAAKKALEALGSAGGSA [r2_92_TrROS]	3.579 ± 0.026	3.24 ± 0.095	2.34 ± 0.056
SAGGSKYPIEVTDPENGNPVLLEDVESLASVTQEEPGDGRSLYTATVPETGEPVFLTSPEKLAAALSSAGGS [r8_206_JUSTAS]	0.0753 ± 0.19	0.384 ± 0.11	0.593 ± 0.035
SAGGSLIEKIAKEAGIKVEISKEETNGSPVLTITITKGDKNIVFKDDGKDPEKLVKELAKKIGIKPISAGGS [r8_226_JUSTAS]	0.414 ± 0.086	0.422 ± 0.19	0.499 ± 0.043
SAGGSLPLPPGATVETTEVDPANPDRTYKTTTTFTPVPGNTLLATPVVTDPETGTTTTTTTTVPLALGSAGG [r13_268_JUSTAS]	0.809 ± 0.15	0.64 ± 0.13	0.321 ± 0.054
SAGGSLPPGQWIFMIQLEIEPPNGNTWPFNIMVPPDNVEEQAKEIADRLRENGLKVKIEITDVMPVSAGGSA [r2_274_TrROS]	3.5 ± 0.083	3.09 ± 0.13	2.22 ± 0.13
SAGGSLPPSTVIESEIVIEIEIENNISGIPGKTEKAFIIIKVTVTTDENGNLSSSVEIEIIPAKDLSAGGSA [r2_448_TrMRF]	2.97 ± 0.21	3.26 ± 0.41	3.22 ± 0.23
SAGGSLSNVTPLGTTPVTLPGSTVTITVYKSDTPGVVYVKIEYPETGVEKVRVLSPEELEKVIEELLSAGGS [r8_469_JUSTAS]	3.199 ± 0.025	3.07 ± 0.054	2.69 ± 0.071
SAGGSLVEKVKAIFAEKGIPVNPITTTPTSFTAKTPTGPFTVELPGNSTVTVSPDGTATVTVPPGLSSAGGS [r8_297_JUSTAS]	2.2 ± 0.066	1.99 ± 0.21	1.41 ± 0.16
SAGGSLVYRLVLRRGDKVLVVTAPFDSPSDALAAASRLLPGGAELLLEFFDPRTGEPLGTVPFRSVSAGGSA [r2_390_TrMRF]	2.06 ± 0.039	2.22 ± 0.034	2.257 ± 0.015

From the supplement of paper PMC12764529
